We go through six substances from paper PMC6176016.

What all share (test): FRET by FACS (LSRII)
A general note: In flow cytometry, cells or beads pass a laser one at a time.

The target in assay [1] is TACI-S (short TACI isoform) labeled with mCherry or YFP, O14836-2. The note with it: co-transfected HEK-293T cells; percent of live cells in the gate, averaged for 6 experiments.
Assay [2] concerns the target TACI-L (long TACI isoform) labeled with mCherry or YFP (UniProt O14836). The note with it: co-transfected HEK-293T cells; percent of live cells in the gate, averaged for 6 experiments.
The target in assay [3] is CD40-eYFP (pReceiver-huCD40-eYFP) (UniProt P25942). The note with it: co-transfected HEK-293T cells; percent of live cells in the gate, averaged for 6 experiments.
Assay [4] addresses WT TACI-YFP. The note with it: HEK-293T cells, double positive YFP and mCherry gate, 6 independent experiments, read off a plot.

Chain of TACI-L (long TACI isoform) labeled with mCherry or YFP (O14836 whole entry, canonical isoform): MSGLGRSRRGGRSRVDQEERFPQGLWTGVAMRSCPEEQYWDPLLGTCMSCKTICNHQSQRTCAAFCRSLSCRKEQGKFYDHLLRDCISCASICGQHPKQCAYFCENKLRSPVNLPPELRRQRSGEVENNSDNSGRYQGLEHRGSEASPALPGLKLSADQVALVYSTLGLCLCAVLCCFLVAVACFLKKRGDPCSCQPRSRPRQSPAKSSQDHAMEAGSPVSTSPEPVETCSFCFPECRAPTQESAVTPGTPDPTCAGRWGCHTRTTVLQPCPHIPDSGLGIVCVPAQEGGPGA
Chain of CD40-eYFP (pReceiver-huCD40-eYFP) (P25942 21-277): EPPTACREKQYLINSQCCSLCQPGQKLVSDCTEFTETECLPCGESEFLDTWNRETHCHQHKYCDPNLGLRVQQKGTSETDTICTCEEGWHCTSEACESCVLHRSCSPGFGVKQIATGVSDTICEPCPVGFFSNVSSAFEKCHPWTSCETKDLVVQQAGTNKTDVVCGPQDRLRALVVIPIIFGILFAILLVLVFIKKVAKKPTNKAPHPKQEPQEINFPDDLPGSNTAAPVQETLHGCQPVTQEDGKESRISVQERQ
Chain of TACI-S (short TACI isoform) labeled with mCherry or YFP, O14836-2 (O14836 other isoform, or with tags, fused parts or gaps): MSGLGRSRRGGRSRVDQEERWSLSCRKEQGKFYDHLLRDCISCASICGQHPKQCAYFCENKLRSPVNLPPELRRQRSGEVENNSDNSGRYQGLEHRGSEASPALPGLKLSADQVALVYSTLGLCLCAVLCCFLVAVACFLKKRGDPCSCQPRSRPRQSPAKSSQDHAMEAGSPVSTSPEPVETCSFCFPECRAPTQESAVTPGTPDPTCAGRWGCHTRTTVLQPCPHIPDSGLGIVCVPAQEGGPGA

For “WT TACI (isoform of the mutant not stated in the panel) C104R”, the response (% FRET positive cells) in assay [1] is 18.7; in assay [2] it was 14.8; in assay [3] it was 0.02.
In the case of TACI-S C104R, in assay [4] (parent: est. 72), the response (% FRET positive cells) was 74.
With TACI-S A181E, the response (% FRET positive cells) in assay [4] (parent: est. 72) worked out at 88.
Consider TACI-L A181E, for which the response (% FRET positive cells) in assay [4] (parent: est. 90) is 72.
On to TACI-L C104R, for which the response (% FRET positive cells) in assay [4] (parent: est. 90) amounted to 81.
In the case of “WT TACI (isoform of the mutant not stated in the panel) A181E”, the response (% FRET positive cells) is 19.6 in assay [1], 16.8 in assay [2] and 0.38 in assay [3].
